# From patent US20030138403A1
# Biological target: interferon gamma receptors on HeLa cells (UniProt P15260)
# Test: cell-based or functional assay
# Sequence of UniProt P15260 (P15260 18-489 limits assumed): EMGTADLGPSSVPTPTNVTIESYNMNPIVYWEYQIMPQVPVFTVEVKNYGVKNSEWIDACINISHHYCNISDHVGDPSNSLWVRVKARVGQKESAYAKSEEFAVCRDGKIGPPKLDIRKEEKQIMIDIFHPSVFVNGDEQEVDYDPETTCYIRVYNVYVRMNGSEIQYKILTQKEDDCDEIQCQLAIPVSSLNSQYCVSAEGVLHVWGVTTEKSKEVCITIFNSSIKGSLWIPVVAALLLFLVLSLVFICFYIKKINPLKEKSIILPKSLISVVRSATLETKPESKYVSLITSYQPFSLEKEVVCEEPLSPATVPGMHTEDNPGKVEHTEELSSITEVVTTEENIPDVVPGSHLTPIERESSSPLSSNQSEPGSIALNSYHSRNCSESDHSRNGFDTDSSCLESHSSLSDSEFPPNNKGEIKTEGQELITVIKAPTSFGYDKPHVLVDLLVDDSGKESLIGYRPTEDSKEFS
"specific activity as percent of the corresponding non-PEGylated interferon gamma variant, Primary Assay","specific activity, Primary Assay (ISRE-luciferase reporter in HeLa cells)","interferon gamma activity, Primary Assay (ISRE-luciferase reporter in HeLa cells), culture medium 24 h after transfection",Substance
15%,1.3e+06 AU/mg,,interferon gamma variant N16C+S99T (full-length) PEGylated with mPEG-OPSS (10 kDa) (from UniProt P01579 24-161) (ligand)
,,1.3e+07 AU/ml,"interferon gamma E38N+S40T+S99T variant (full-length, expressed from pIGY-54 in CHO K1 cells) (from UniProt P01579 24-161) (ligand)"
,,5.1e+06 AU/ml,"interferon gamma S99T variant (full-length, expressed from pIGY-48 in CHO K1 cells) (from UniProt P01579 24-161) (ligand)"
15%,2.4e+06 AU/mg,,interferon gamma variant N59C+S99T (full-length) PEGylated with mPEG-MAL (5 kDa) (from UniProt P01579 24-161) (ligand)
